Test results from patent US20240091321A1.
Positions count from the first letter of the chain named. Blank lines part the entries; values can stand above or below the binder they belong to.

Columns and labels:
[1] = biological target: CI-MPR receptor; experiment: CIMPR binding assay, PPT1 conditioned media, dilution starting at 50 nM, bound PPT1 activity; the table prints no units, units of the axes
[2] = biological target: CI-MPR receptor; experiment: CIMPR binding assay, PPT1 conditioned media, curves starting at 25 nM, bound PPT1 activity; the table prints no units, units of the axes

Bmax [1]: 73.5 nmol/mL/h | Kd [1]: 4.45 nM | Bmax [2]: 73.5 nmol/mL/h | Kd [2]: 4.45 nM
B1: PPT1-105 (enzyme, part only; not given: linker identity, part only)
fusion protein, part: SRALQHLDPPAPLPLVIWHGMGDSCCNPLSMGAIKKMVEKKIPGIYVLSLEIGKTLMEDVENSFFLNVNSQVTTVCQALAKDPKLQQGYNAMGFSQGGQFLRAVAQRCPSPPMINLISVGGQHQGVFGLPRCPGESSHICDFIRKTLNAGAYSKVVQERLVQAEYWHDPIKEDVYRNHSIFLADINQERGINESYKKNLMALKKFVMVKFLNDSIVDPVDSEWFGFYRSGQAKETIPLQETSLYTQDRLGLKEMDNAGQLVFLATEGDHLQLSEEWFYAHIIPFLGRPRAVPTQSRTLCGGELVDTLQFVCGDRGFLFSRGGGGSRGILEECCFRDCDLALLETYCATPARSE

Bmax [1]: 91.4 nmol/mL/h | Kd [1]: 5.46 nM | Bmax [2]: 91.4 nmol/mL/h | Kd [2]: 5.46 nM
B2: PPT1-106 (enzyme, part only; not given: linker identity, part only)
fusion protein, part: B1 fusion protein, part with D336E
